The values that follow come from the supplement of paper PMC12042874.

± gives the uncertainty stated by the source.

The nature of this series: amyloid nucleation score (Sup35N fusion, yeast selection) (log enrichment); library NNK2; higher = more nucleation; inactive = no reads after selection. Put shortly:
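On medium lacking adenine and uracil, psi-negative yeast expressing peptides of 20 random codons fused to Sup35N were grown 7 days at 30°C after a 24-hour induction with 100 μM copper sulfate. Illumina sequencing of input and output plasmid inserts gave the reads, and sequences under 100 input reads were excluded. The nucleation score is the DiMSum log enrichment of output over input reads, centred on the mode score of non-aggregating sequences.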
Turning to VYYSNTTTRSCSEMQVVFFF, the amyloid nucleation score was -1.13 ± 0.41. To DGVNAFNR belongs 0.203 ± 0.2; to IISGAFRCARNGY, 1.62 ± 0.3; to ASWKFMFNCSKISRRPNTIT, 0.148 ± 1. In turn, ICGCCARIHNYNISVSACLT had an amyloid nucleation score of 4.3 ± 0.052. FYSSPILM had an amyloid nucleation score of -0.927 ± 0.41.

In turn, VLIRSSDNWWAEGSGVLGSC gave an amyloid nucleation score of 0.201 ± 1. Consider FCRIAATTRHMHGGLVGRWS, for which the amyloid nucleation score stood at 1.04 ± 0.68. As for TVFFIFHLLVYLPMFTRALD, the amyloid nucleation score worked out at 8.55 ± 0.043. Under FSRVESEIHSHWPW stands 5.639 ± 0.041. To VIHMVPMTEGGLPCTV belongs -0.139 ± 0.56; to HMSVGNFLIPLCITMLRGIG, -0.347 ± 1.1. Turning to GYKDANQNM, the amyloid nucleation score result is “inactive”. To GRASMRACWVKMFYWFW belongs 0.981 ± 0.18. As for FTKSKWLWSRAAFLRIDRW, the amyloid nucleation score is 0.799 ± 0.74. In turn, PMFNEHRFSR had an amyloid nucleation score of 2.37 ± 0.1. Take NFRPCRVLRFGY: the amyloid nucleation score stood at 1.03 ± 0.66.

SLTSSSICHRPHTCTVCV yielded an amyloid nucleation score of -0.364 ± 0.33.

Take PEMLHTVILGISSNHYERGL: the amyloid nucleation score is -1.12 ± 0.74.

KRRSQIRMTNDNLASVNMKN came in with an amyloid nucleation score of 1.43 ± 0.096. To DLIGPYRVLRFCRWV belongs 2.8 ± 0.099; to NSKGN, 0.112 ± 1.1.

Take VFDGRYVESILSFF: the amyloid nucleation score turned out to be 3.96 ± 0.1. Under SRTDVPSTMLLSESRAVNYY stands -0.569 ± 1.1; under GPIWCRS, -0.467 ± 0.74; under FGFSEGEMVPSFI, -1.21 ± 1. Under EVRIDHGHVIA stands 0.293 ± 0.43; under DTRLIGECQLGSGVTVLSLG, 0.252 ± 0.27. Under VTVNE stands 0.711 ± 0.21; under SWDHDYCGRWWCSNARGKIN, 4.3 ± 0.07; under FFWFQTSLDTPWKEVILVYI, -0.719 ± 0.79. Take DWCWAMDLYSFVFHCRLEAF: the amyloid nucleation score is -0.658 ± 1. As for SGCFVWPELVGESSIIMCPS, the amyloid nucleation score result was “inactive”. FGFVTKYFMGV showed an amyloid nucleation score of 1.96 ± 0.23. PSLRV yielded an amyloid nucleation score of 1.08 ± 0.42. Under NNQYINWMRKCG stands -0.671 ± 0.41; under HNTKSYLWV, “inactive”.

FSMRSKQGRTFTRLQDGSGL showed an amyloid nucleation score of 4 ± 0.046. Under NGCSFRGNCCDSGERNVVEV stands 0.071 ± 0.6. The substance RPAFTNLRQCQRAYPVGGRC came in with an amyloid nucleation score of 0.195 ± 0.53. To VCWYG belongs 0.034 ± 0.3.

NMFVSSRSM came in with an amyloid nucleation score of 0.585 ± 0.8.

As for DGMSRSVRKNCEAGCRRSFG, the amyloid nucleation score worked out at 4.58 ± 0.048.

On to LSHEFMIEW, for which the amyloid nucleation score is -0.19 ± 0.62. With LLHSSYIIK, the amyloid nucleation score is 0.115 ± 1. To FDLCTLFYNSRFHIIRYWVT belongs “inactive”; to VYEKVVLGKDFVM, -0.28 ± 0.79; to KDGEVAAMPGRGVHQVMGEK, 0.325 ± 0.49.

Substance FKAVS came in with an amyloid nucleation score of -0.291 ± 1.1.

Turning to HLFVASYDKRVECFLSVKGE, the amyloid nucleation score entry is “inactive”. To TYLLLWSCGWLSWRVICALR belongs 4.66 ± 0.089. To VFNWVRISPR belongs 8.81 ± 0.07; to FMYLPL, -0.596 ± 0.3.

With VCRHFVRVKDQMDRTFNDKQ, the amyloid nucleation score is 0.18 ± 0.28. Under CNPVAV stands 0.8 ± 0.66. Under EAFYLSFFN stands “inactive”. To YLLVLFGSGTYITPTLLRIN belongs -1.55 ± 0.49; to YIVCYAVSGLVWSIGSHEGM, 1.86 ± 0.13. Take YNMMSKFNIFGYYACKSSWK: the amyloid nucleation score was found to be 1.27 ± 0.14. DIARDLVWGLRSNAGAQLGN came in with an amyloid nucleation score of 0.54 ± 0.44. Under PSNKLKWLCLDV stands 0.576 ± 0.43; under FNSLILQIIVVRV, 7.843 ± 0.04; under NADQLLIGELQLTLGLWPIR, 1.14 ± 0.16. Under KHMYYYCLYANELQVAVEMN stands -0.235 ± 0.45. Take SIKGGSIEIEMYELESWVQL: the amyloid nucleation score was -0.791 ± 1.1. In the case of FRLTIDNFDVNGLLSEMAYG, the amyloid nucleation score was -0.293 ± 0.38.

Take RYRELVGVKCMV: the amyloid nucleation score was 0.978 ± 0.74. In the case of NRTAFPCFLA, the amyloid nucleation score was -0.473 ± 0.49.

LIICSAPCCVTTWQQLRTMQ showed an amyloid nucleation score of 4.15 ± 0.047. Under CRISVIFLYFSFFY stands “inactive”; under GNRFPRPSPQGIIYKLLLFR, 2.92 ± 0.11; under RIQWKDGYHVARRVFIGNTG, -0.449 ± 0.63. Take DVRSRVHWDMSDQQFIMWWV: the amyloid nucleation score is -0.716 ± 1.1. To GVEVKSNVWTVSGWESQTPQ belongs 1.89 ± 0.42. In turn, VLAGLMVNSGVL yielded an amyloid nucleation score of -0.34 ± 0.3.

As to RNSLEFTDTRCNQPGQCESG, the amyloid nucleation score was 0.641 ± 0.4. On to CPLMNLYRNVFYVWKLNFLP, for which the amyloid nucleation score result was “inactive”.

Substance TRFCCVATHFDYNLIIFYYP returned an amyloid nucleation score of 0.554 ± 0.23. Under WFMERVFYNSTNSTQLFEWV stands “inactive”; under HDINRMG, 0.391 ± 0.54. With EIMSFSVRSKYAFWIPIAIC, the amyloid nucleation score is -0.026 ± 0.53.

GLLVSGMINWYRVFIRNILL gave an amyloid nucleation score of -0.606 ± 0.38. Under VRFVMNRSHHRSRWEAVAFN stands 0.255 ± 0.48; under SVESIYLVVDVMMLGELCCA, 4.849 ± 0.034. To HWYVVDLVRVNYRALNSKWW belongs 0.194 ± 0.56; to CDSAAFRPYLFSAENLSLYK, 0.53 ± 0.66; to SCGVDCSVSGC, 0.903 ± 0.57.

As to HLYRSCVNKLL, the amyloid nucleation score is -0.833 ± 1.1. Under YSYSIRLRCFASRYIFVRVR stands 0.436 ± 0.66; under NWFHVRTDCRRWGGRKVYYN, -0.883 ± 1.1; under TLMQSYVQFWYTLYSHNNWL, -0.698 ± 0.24. Regarding LMLLYIRSKYGEFVWIPKVH, the amyloid nucleation score was -0.021 ± 0.54.

Consider MSLLV, for which the amyloid nucleation score is 5.695 ± 0.029. To LAVIGVSRGMGL belongs 0.716 ± 0.25. To TFFGWLALRIWARYRYE belongs “inactive”; to IYPSVRYPMYAITKRYSRVG, -0.769 ± 0.28. Under ILSHTGRVYKLRLYVIQIVR stands -0.434 ± 0.61. Regarding LCINN, the amyloid nucleation score is -1.99 ± 1.1. Under IDSILICIMHDCIYIEYLRN stands 4.44 ± 0.094. FMLQVVGRVEVFH registered an amyloid nucleation score of 3.32 ± 0.066. Under CFHVITVNPGLQ stands 1.37 ± 0.39.

Turning to YFRAYWTCSEC, the amyloid nucleation score result was “inactive”.

CSAITGY registered an amyloid nucleation score of 0.564 ± 0.23. PRWRDRVVNMKSDLDGV gave an amyloid nucleation score of 5.51 ± 0.073. As for KMCLIRYMHNPKVGIRLGRS, the amyloid nucleation score came to 0.102 ± 0.33.

YTRSAGGLISL registered an amyloid nucleation score of -0.774 ± 1.1. To SPWKTFMQVLWDTWVARVCL belongs 0.515 ± 0.28. Under SNLLWAKSGPKAVWKPGRWD stands 0.423 ± 0.41; under DQFWSENRIDYDNLAIRLQL, -1.1 ± 0.76; under YWFQKLEGSRHDMV, -0.121 ± 1.1. Under SSMILLVYCPYVPWNRSRR stands 4.8 ± 0.041; under CILLTGPSYSLKLAYSDCLS, -1.15 ± 0.43.

The substance IFRFARSNTYFRGESME yielded an amyloid nucleation score of 4.08 ± 0.095. YISCYCRSSFRMLSVVSDYR gave an amyloid nucleation score of 2.54 ± 0.077. Under NLFYKKSLRLCYGLLQLRDF stands “inactive”; under YSGLKCALCRCC, 1.94 ± 0.3.

DMSSHGGWFRPRRFLEISPL: the amyloid nucleation score stood at 0.183 ± 1.

EWVMKSWV showed an amyloid nucleation score of -0.578 ± 1.1. The substance VSHRG came in with an amyloid nucleation score of 2.37 ± 0.076. Regarding SSLFYERRIQLCVFI, the amyloid nucleation score amounted to 3.63 ± 0.077. VDYLRYLIWFNRS yielded an amyloid nucleation score of 0.058 ± 0.79. Substance LLNYTRGACCDRTRVQFSTT yielded an amyloid nucleation score of -0.079 ± 0.76. Under AMTVSWWCCLMYVDMG stands 10.59 ± 0.037; under ILWDTIREVHVHADMDMAPN, -0.782 ± 0.61; under FIIVK, -1.32 ± 0.41.

With HDRVIRQN, the amyloid nucleation score came out at 0.084 ± 0.26. Under YALCLKALEFMVMGLPSSRM stands -0.049 ± 0.76; under KTFLVDSLCNRL, “inactive”. As for NPGETDQRQSWSCSDCPAFS, the amyloid nucleation score came out at 1.51 ± 0.35. Take MPGYYPMGSL: the amyloid nucleation score is 0.427 ± 0.74. To INTSELNVFRS belongs “inactive”; to CNVASFELVLRD, “inactive”; to SFTYASSV, -1.1 ± 0.28. LVCYLMTMNSNGARSRGVPF displayed an amyloid nucleation score of 5.99 ± 0.063. Substance SGFKLLGFTNYVHAVSMGSQ showed an amyloid nucleation score of 3.25 ± 0.15. Under WCAPWPWVKCLFTSPVFSVV stands 0.712 ± 0.4; under VKNCDWGIYIILSGFMRVTR, -1.27 ± 1.1; under IFFLSNLKRKPDDRGLVHKN, 2.57 ± 0.14. Under MSPYL stands 0.479 ± 0.8; under SPTER, 0.053 ± 0.65.

With YERMWCHLLVLRPNKQK, the amyloid nucleation score is 0.697 ± 0.81. To LLYHVGSTMGKPIYN belongs -0.669 ± 1; to ITYGKVLR, 0.379 ± 0.44.
